Consider 21 molecules from US20110118131A1 (published 2011).

To fix the notation:
B1: XPA23 heavy chain V50G (Fab, V domains shown)
VH: EVQLLESGGGLVQPGGSLRLSCAASGFTFSKYFMFWVRQAPGKGLEWVSGISPSGGMTRYADSVKGRFTISRDNSKNTLYLQMNSLRAEDTAVYYCARVGYGGNSDYWGQGTLVTVSS
VL: DIQMTQSPSSVSASVGDRLTIICRASQDINRWLAWYQQTPGNAPKLLIHSATSLQSGVPSRFSGSGSGTDFTLTINSLQPEDFATYYCQQADSFPLTFGGGTKVEIK
notes: Fab, periplasmic extract; also called C5A V50G
B2: XPA23 heavy chain Y101P (Fab, V domains shown)
VH: EVQLLESGGGLVQPGGSLRLSCAASGFTFSKYFMFWVRQAPGKGLEWVSVISPSGGMTRYADSVKGRFTISRDNSKNTLYLQMNSLRAEDTAVYYCARVGPGGNSDYWGQGTLVTVSS
VL: DIQMTQSPSSVSASVGDRLTIICRASQDINRWLAWYQQTPGNAPKLLIHSATSLQSGVPSRFSGSGSGTDFTLTINSLQPEDFATYYCQQADSFPLTFGGGTKVEIK
notes: Fab, periplasmic extract; also called C5A Y101P
B3: XPA23 heavy chain Y101A (Fab, V domains shown)
VH: EVQLLESGGGLVQPGGSLRLSCAASGFTFSKYFMFWVRQAPGKGLEWVSVISPSGGMTRYADSVKGRFTISRDNSKNTLYLQMNSLRAEDTAVYYCARVGAGGNSDYWGQGTLVTVSS
VL: DIQMTQSPSSVSASVGDRLTIICRASQDINRWLAWYQQTPGNAPKLLIHSATSLQSGVPSRFSGSGSGTDFTLTINSLQPEDFATYYCQQADSFPLTFGGGTKVEIK
notes: Fab, periplasmic extract; also called C5A Y101A
B4: XPA23 heavy chain Y107A (Fab, V domains shown)
VH: EVQLLESGGGLVQPGGSLRLSCAASGFTFSKYFMFWVRQAPGKGLEWVSVISPSGGMTRYADSVKGRFTISRDNSKNTLYLQMNSLRAEDTAVYYCARVGYGGNSDAWGQGTLVTVSS
VL: DIQMTQSPSSVSASVGDRLTIICRASQDINRWLAWYQQTPGNAPKLLIHSATSLQSGVPSRFSGSGSGTDFTLTINSLQPEDFATYYCQQADSFPLTFGGGTKVEIK
notes: Fab, periplasmic extract; also called C5A Y107A
B5: XPA23 heavy chain Y32P (Fab, V domains shown)
VH: EVQLLESGGGLVQPGGSLRLSCAASGFTFSKPFMFWVRQAPGKGLEWVSVISPSGGMTRYADSVKGRFTISRDNSKNTLYLQMNSLRAEDTAVYYCARVGYGGNSDYWGQGTLVTVSS
VL: DIQMTQSPSSVSASVGDRLTIICRASQDINRWLAWYQQTPGNAPKLLIHSATSLQSGVPSRFSGSGSGTDFTLTINSLQPEDFATYYCQQADSFPLTFGGGTKVEIK
notes: Fab, periplasmic extract; also called C5A Y32P
B6: XPA23 heavy chain Y107I (Fab, V domains shown)
VH: EVQLLESGGGLVQPGGSLRLSCAASGFTFSKYFMFWVRQAPGKGLEWVSVISPSGGMTRYADSVKGRFTISRDNSKNTLYLQMNSLRAEDTAVYYCARVGYGGNSDIWGQGTLVTVSS
VL: DIQMTQSPSSVSASVGDRLTIICRASQDINRWLAWYQQTPGNAPKLLIHSATSLQSGVPSRFSGSGSGTDFTLTINSLQPEDFATYYCQQADSFPLTFGGGTKVEIK
notes: Fab, periplasmic extract; also called C5A Y107I
B7: XPA23 heavy chain Y101V (Fab, V domains shown)
VH: EVQLLESGGGLVQPGGSLRLSCAASGFTFSKYFMFWVRQAPGKGLEWVSVISPSGGMTRYADSVKGRFTISRDNSKNTLYLQMNSLRAEDTAVYYCARVGVGGNSDYWGQGTLVTVSS
VL: DIQMTQSPSSVSASVGDRLTIICRASQDINRWLAWYQQTPGNAPKLLIHSATSLQSGVPSRFSGSGSGTDFTLTINSLQPEDFATYYCQQADSFPLTFGGGTKVEIK
notes: Fab, periplasmic extract; also called C5A Y101V
B8: XPA23 heavy chain Y107L (Fab, V domains shown)
VH: EVQLLESGGGLVQPGGSLRLSCAASGFTFSKYFMFWVRQAPGKGLEWVSVISPSGGMTRYADSVKGRFTISRDNSKNTLYLQMNSLRAEDTAVYYCARVGYGGNSDLWGQGTLVTVSS
VL: DIQMTQSPSSVSASVGDRLTIICRASQDINRWLAWYQQTPGNAPKLLIHSATSLQSGVPSRFSGSGSGTDFTLTINSLQPEDFATYYCQQADSFPLTFGGGTKVEIK
notes: Fab, periplasmic extract; also called C5A Y107L
B9: XPA23 heavy chain Y32L (Fab, V domains shown)
VH: EVQLLESGGGLVQPGGSLRLSCAASGFTFSKLFMFWVRQAPGKGLEWVSVISPSGGMTRYADSVKGRFTISRDNSKNTLYLQMNSLRAEDTAVYYCARVGYGGNSDYWGQGTLVTVSS
VL: DIQMTQSPSSVSASVGDRLTIICRASQDINRWLAWYQQTPGNAPKLLIHSATSLQSGVPSRFSGSGSGTDFTLTINSLQPEDFATYYCQQADSFPLTFGGGTKVEIK
notes: Fab, periplasmic extract; also called C5A Y32L
B10: XPA23 heavy chain Y32T (Fab, V domains shown)
VH: EVQLLESGGGLVQPGGSLRLSCAASGFTFSKTFMFWVRQAPGKGLEWVSVISPSGGMTRYADSVKGRFTISRDNSKNTLYLQMNSLRAEDTAVYYCARVGYGGNSDYWGQGTLVTVSS
VL: DIQMTQSPSSVSASVGDRLTIICRASQDINRWLAWYQQTPGNAPKLLIHSATSLQSGVPSRFSGSGSGTDFTLTINSLQPEDFATYYCQQADSFPLTFGGGTKVEIK
notes: Fab, periplasmic extract; also called C5A Y32T
B11: XPA23 heavy chain Y107G (Fab, V domains shown)
VH: EVQLLESGGGLVQPGGSLRLSCAASGFTFSKYFMFWVRQAPGKGLEWVSVISPSGGMTRYADSVKGRFTISRDNSKNTLYLQMNSLRAEDTAVYYCARVGYGGNSDGWGQGTLVTVSS
VL: DIQMTQSPSSVSASVGDRLTIICRASQDINRWLAWYQQTPGNAPKLLIHSATSLQSGVPSRFSGSGSGTDFTLTINSLQPEDFATYYCQQADSFPLTFGGGTKVEIK
notes: Fab, periplasmic extract; also called C5A Y107G
B12: XPA23 heavy chain V50L (Fab, V domains shown)
VH: EVQLLESGGGLVQPGGSLRLSCAASGFTFSKYFMFWVRQAPGKGLEWVSLISPSGGMTRYADSVKGRFTISRDNSKNTLYLQMNSLRAEDTAVYYCARVGYGGNSDYWGQGTLVTVSS
VL: DIQMTQSPSSVSASVGDRLTIICRASQDINRWLAWYQQTPGNAPKLLIHSATSLQSGVPSRFSGSGSGTDFTLTINSLQPEDFATYYCQQADSFPLTFGGGTKVEIK
notes: Fab, periplasmic extract; also called C5A V50L
B13: XPA23 heavy chain Y101I (Fab, V domains shown)
VH: EVQLLESGGGLVQPGGSLRLSCAASGFTFSKYFMFWVRQAPGKGLEWVSVISPSGGMTRYADSVKGRFTISRDNSKNTLYLQMNSLRAEDTAVYYCARVGIGGNSDYWGQGTLVTVSS
VL: DIQMTQSPSSVSASVGDRLTIICRASQDINRWLAWYQQTPGNAPKLLIHSATSLQSGVPSRFSGSGSGTDFTLTINSLQPEDFATYYCQQADSFPLTFGGGTKVEIK
notes: Fab, periplasmic extract; also called C5A Y101I
B14: XPA23 heavy chain V50T (Fab, V domains shown)
VH: EVQLLESGGGLVQPGGSLRLSCAASGFTFSKYFMFWVRQAPGKGLEWVSTISPSGGMTRYADSVKGRFTISRDNSKNTLYLQMNSLRAEDTAVYYCARVGYGGNSDYWGQGTLVTVSS
VL: DIQMTQSPSSVSASVGDRLTIICRASQDINRWLAWYQQTPGNAPKLLIHSATSLQSGVPSRFSGSGSGTDFTLTINSLQPEDFATYYCQQADSFPLTFGGGTKVEIK
notes: Fab, periplasmic extract; also called C5A V50T
B15: XPA23 heavy chain V99T (Fab, V domains shown)
VH: EVQLLESGGGLVQPGGSLRLSCAASGFTFSKYFMFWVRQAPGKGLEWVSVISPSGGMTRYADSVKGRFTISRDNSKNTLYLQMNSLRAEDTAVYYCARTGYGGNSDYWGQGTLVTVSS
VL: DIQMTQSPSSVSASVGDRLTIICRASQDINRWLAWYQQTPGNAPKLLIHSATSLQSGVPSRFSGSGSGTDFTLTINSLQPEDFATYYCQQADSFPLTFGGGTKVEIK
notes: Fab, periplasmic extract; also called C5A V99T
B16: XPA23 heavy chain Y101T (Fab, V domains shown)
VH: EVQLLESGGGLVQPGGSLRLSCAASGFTFSKYFMFWVRQAPGKGLEWVSVISPSGGMTRYADSVKGRFTISRDNSKNTLYLQMNSLRAEDTAVYYCARVGTGGNSDYWGQGTLVTVSS
VL: DIQMTQSPSSVSASVGDRLTIICRASQDINRWLAWYQQTPGNAPKLLIHSATSLQSGVPSRFSGSGSGTDFTLTINSLQPEDFATYYCQQADSFPLTFGGGTKVEIK
notes: Fab, periplasmic extract; also called C5A Y101T
B17: XPA23 heavy chain V99A (Fab, V domains shown)
VH: EVQLLESGGGLVQPGGSLRLSCAASGFTFSKYFMFWVRQAPGKGLEWVSVISPSGGMTRYADSVKGRFTISRDNSKNTLYLQMNSLRAEDTAVYYCARAGYGGNSDYWGQGTLVTVSS
VL: DIQMTQSPSSVSASVGDRLTIICRASQDINRWLAWYQQTPGNAPKLLIHSATSLQSGVPSRFSGSGSGTDFTLTINSLQPEDFATYYCQQADSFPLTFGGGTKVEIK
notes: Fab, periplasmic extract; also called C5A V99A
B18: XPA23 heavy chain Y32G (Fab, V domains shown)
VH: EVQLLESGGGLVQPGGSLRLSCAASGFTFSKGFMFWVRQAPGKGLEWVSVISPSGGMTRYADSVKGRFTISRDNSKNTLYLQMNSLRAEDTAVYYCARVGYGGNSDYWGQGTLVTVSS
VL: DIQMTQSPSSVSASVGDRLTIICRASQDINRWLAWYQQTPGNAPKLLIHSATSLQSGVPSRFSGSGSGTDFTLTINSLQPEDFATYYCQQADSFPLTFGGGTKVEIK
notes: Fab, periplasmic extract; also called C5A Y32G
B19: XPA23 heavy chain Y32V (Fab, V domains shown)
VH: EVQLLESGGGLVQPGGSLRLSCAASGFTFSKVFMFWVRQAPGKGLEWVSVISPSGGMTRYADSVKGRFTISRDNSKNTLYLQMNSLRAEDTAVYYCARVGYGGNSDYWGQGTLVTVSS
VL: DIQMTQSPSSVSASVGDRLTIICRASQDINRWLAWYQQTPGNAPKLLIHSATSLQSGVPSRFSGSGSGTDFTLTINSLQPEDFATYYCQQADSFPLTFGGGTKVEIK
notes: Fab, periplasmic extract; also called C5A Y32V
B20: XPA23 heavy chain V50I (Fab, V domains shown)
VH: EVQLLESGGGLVQPGGSLRLSCAASGFTFSKYFMFWVRQAPGKGLEWVSIISPSGGMTRYADSVKGRFTISRDNSKNTLYLQMNSLRAEDTAVYYCARVGYGGNSDYWGQGTLVTVSS
VL: DIQMTQSPSSVSASVGDRLTIICRASQDINRWLAWYQQTPGNAPKLLIHSATSLQSGVPSRFSGSGSGTDFTLTINSLQPEDFATYYCQQADSFPLTFGGGTKVEIK
notes: Fab, periplasmic extract; also called C5A V50I
B21: XPA23 heavy chain Y101L (Fab, V domains shown)
VH: EVQLLESGGGLVQPGGSLRLSCAASGFTFSKYFMFWVRQAPGKGLEWVSVISPSGGMTRYADSVKGRFTISRDNSKNTLYLQMNSLRAEDTAVYYCARVGLGGNSDYWGQGTLVTVSS
VL: DIQMTQSPSSVSASVGDRLTIICRASQDINRWLAWYQQTPGNAPKLLIHSATSLQSGVPSRFSGSGSGTDFTLTINSLQPEDFATYYCQQADSFPLTFGGGTKVEIK
notes: Fab, periplasmic extract; also called C5A Y101L

This experiment concerns the target T1, IL-1β (UniProt P01584 117-269).
T1 construct: Antigen of XPA23
The experiment in a line: Biacore, Fab periplasmic extract. For orientation: Surface plasmon resonance follows binding to a sensor surface in real time, without labels.
On to B1, for which the “fold difference in affinity against the original” value (“fold difference in affinity” below) was 0.03 fold.

Take B2: the “fold difference in affinity” value amounted to 0.04 fold.

B3: the “fold difference in affinity” value is 0.04 fold.

As to B4, the “fold difference in affinity” value was 0.83 fold.

For B5, the “fold difference in affinity” value amounted to 0.68 fold.

Take B6: the “fold difference in affinity” value was 0.96 fold.

For the molecule B7, the “fold difference in affinity” value turned out to be 0.09 fold.

As to B8, the “fold difference in affinity” value turned out to be 0.86 fold.

For the molecule B9, the “fold difference in affinity” value was 0.75 fold.

Consider B10, for which the “fold difference in affinity” value stood at 0.8 fold.

For B11, the “fold difference in affinity” value came out at 0.1 fold.

In the case of B12, the “fold difference in affinity” value is 0.09 fold.

Take B13: the “fold difference in affinity” value was 0.83 fold.

In the case of B14, the “fold difference in affinity” value turned out to be 0.03 fold.

As for B15, the “fold difference in affinity” value was 0.1 fold.

With B16, the “fold difference in affinity” value was found to be 0.06 fold.

In the case of B17, the “fold difference in affinity” value was 0.03 fold.

B18: the “fold difference in affinity” value worked out at 1 fold.

In the case of B19, the “fold difference in affinity” value was 1.07 fold.

Consider B20, for which the “fold difference in affinity” value stood at 0.1 fold.

In the case of B21, the “fold difference in affinity” value worked out at 1.91 fold.
